T1: human EphA7 (Homo sapiens, UniProt Q15375)
T1 construct: a protein of the extracellular region of each human Eph receptor fused with the SEAP protein and the His tag; made in house; host or cells: Expi293F cells (culture supernatant)
T1 sequence (Q15375 28-555 limits assumed): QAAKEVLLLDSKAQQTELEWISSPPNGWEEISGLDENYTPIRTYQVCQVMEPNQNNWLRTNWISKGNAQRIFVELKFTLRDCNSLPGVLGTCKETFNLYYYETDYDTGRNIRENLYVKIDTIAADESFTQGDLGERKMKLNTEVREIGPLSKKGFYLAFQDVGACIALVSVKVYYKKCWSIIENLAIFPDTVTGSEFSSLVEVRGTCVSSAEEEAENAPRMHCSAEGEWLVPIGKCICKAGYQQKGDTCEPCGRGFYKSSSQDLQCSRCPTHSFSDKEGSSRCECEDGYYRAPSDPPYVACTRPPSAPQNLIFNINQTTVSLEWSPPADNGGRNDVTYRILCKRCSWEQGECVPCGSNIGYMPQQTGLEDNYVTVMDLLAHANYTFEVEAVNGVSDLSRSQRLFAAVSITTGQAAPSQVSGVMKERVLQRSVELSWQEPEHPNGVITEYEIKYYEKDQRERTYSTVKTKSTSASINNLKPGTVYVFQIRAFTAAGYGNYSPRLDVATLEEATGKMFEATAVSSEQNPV

T2: human EphB2 (Homo sapiens, UniProt P29323)
T2 construct: a protein of the extracellular region of each human Eph receptor fused with the SEAP protein and the His tag; made in house; host or cells: Expi293F cells
T2 sequence (P29323 19-543 limits assumed): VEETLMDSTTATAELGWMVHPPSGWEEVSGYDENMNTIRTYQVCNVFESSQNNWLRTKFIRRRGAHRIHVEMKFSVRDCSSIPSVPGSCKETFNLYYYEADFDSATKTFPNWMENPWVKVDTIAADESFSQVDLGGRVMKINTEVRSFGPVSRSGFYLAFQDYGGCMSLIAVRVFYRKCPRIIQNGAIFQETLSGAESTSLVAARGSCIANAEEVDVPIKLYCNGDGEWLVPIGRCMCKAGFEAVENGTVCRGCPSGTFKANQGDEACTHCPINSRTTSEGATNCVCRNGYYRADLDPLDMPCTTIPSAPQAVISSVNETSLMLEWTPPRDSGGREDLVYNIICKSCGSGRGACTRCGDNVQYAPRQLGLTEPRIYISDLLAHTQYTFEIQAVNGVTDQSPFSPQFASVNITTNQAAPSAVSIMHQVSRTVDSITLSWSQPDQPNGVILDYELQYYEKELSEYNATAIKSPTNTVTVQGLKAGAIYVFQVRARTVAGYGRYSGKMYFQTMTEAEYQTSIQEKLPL


How the values were obtained:
Test in all cases: Selectivity ELISA of humanized antibodies for human Eph receptor
Type in all cases: binding
human EphA4 = target: T3, human EphA4 (Homo sapiens, UniProt P54764); settings: coated protein 1 nM; reference set to 100%
T3 construct: made in house; not restated for the human SEAP-His protein
Outline: (§1)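 Capture ELISA: anti-6-His coat, 1% BlockAce block, Eph ECD-SEAP-His (1 nM final, Expi293F supernatant) 1 h RT, humanized Ab 1 h RT, HRP anti-IgG 1 h RT, TMB, H2SO4 stop, A450.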

human EphA5 = target: T4, human EphA5 (Homo sapiens, UniProt P54756); settings: coated protein 1 nM
T4 construct: a protein of the extracellular region of each human Eph receptor fused with the SEAP protein and the His tag; made in house; host or cells: Expi293F cells (culture supernatant)
Outline: as §1

human EphA7 = target: T1, human EphA7; settings: coated protein 1 nM
Outline: as §1

human EphB2 = target: T2, human EphB2; settings: coated protein 1 nM
Outline: as §1

T4 sequence (P54756 25-573 limits assumed): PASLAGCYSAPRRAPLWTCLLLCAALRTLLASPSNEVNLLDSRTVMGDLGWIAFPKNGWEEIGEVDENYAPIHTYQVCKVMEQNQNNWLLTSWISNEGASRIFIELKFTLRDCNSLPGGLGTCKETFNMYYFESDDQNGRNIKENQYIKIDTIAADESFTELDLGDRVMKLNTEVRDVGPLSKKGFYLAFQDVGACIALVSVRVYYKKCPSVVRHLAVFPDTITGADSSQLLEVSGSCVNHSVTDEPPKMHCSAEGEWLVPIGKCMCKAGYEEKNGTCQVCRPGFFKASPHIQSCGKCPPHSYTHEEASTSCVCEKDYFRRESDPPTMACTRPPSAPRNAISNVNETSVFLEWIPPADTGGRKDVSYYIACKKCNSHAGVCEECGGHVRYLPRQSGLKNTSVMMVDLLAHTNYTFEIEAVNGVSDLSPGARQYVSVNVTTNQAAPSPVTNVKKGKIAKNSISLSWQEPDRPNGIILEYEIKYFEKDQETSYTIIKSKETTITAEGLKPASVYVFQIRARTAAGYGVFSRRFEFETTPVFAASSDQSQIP
T3 sequence (P54764 20-547): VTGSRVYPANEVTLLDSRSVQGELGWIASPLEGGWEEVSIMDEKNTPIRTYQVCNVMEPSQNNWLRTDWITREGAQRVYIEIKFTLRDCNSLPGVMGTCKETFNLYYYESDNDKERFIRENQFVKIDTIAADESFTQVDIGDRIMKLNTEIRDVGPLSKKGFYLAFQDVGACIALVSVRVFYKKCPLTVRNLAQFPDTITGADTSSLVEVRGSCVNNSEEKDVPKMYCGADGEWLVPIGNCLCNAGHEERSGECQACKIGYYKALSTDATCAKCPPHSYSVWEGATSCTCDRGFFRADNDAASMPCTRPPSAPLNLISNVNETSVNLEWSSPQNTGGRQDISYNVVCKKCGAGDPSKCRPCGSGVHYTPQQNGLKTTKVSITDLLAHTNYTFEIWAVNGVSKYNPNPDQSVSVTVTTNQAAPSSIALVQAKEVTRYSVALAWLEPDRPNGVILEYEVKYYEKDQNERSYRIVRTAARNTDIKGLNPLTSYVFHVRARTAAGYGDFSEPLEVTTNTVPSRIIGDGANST

Molecule | hEphA4-SEAP-: absorbance at 450 nm, percentage with respect to hEphA4-SEAP-His as 100% (human EphA4) [%] | hEphA5-SEAP-: absorbance at 450 nm, percentage with respect to hEphA4-SEAP-His as 100% (human EphA5) [%] | hEphA7-SEAP-: absorbance at 450 nm, percentage with respect to hEphA4-SEAP-His as 100% (human EphA7) [%] | hEphB2-SEAP-: absorbance at 450 nm, percentage with respect to hEphA4-SEAP-His as 100% (human EphB2) [%]
69 (antibody, V domains shown, synthetic humanized antibody heavy chain variable region sequence; synthetic humanized antibody light chain variable region sequence) VH: QIQLVQSGSELKKPGASVKVSCKASGYTFTDYSMHWVRQAPGQGLKWMGWINTETGEPTYADDFKGRFVFSLDTSVSTAYLQISSLKAEDTAVYYCARIPLYYYGSRYWYFDVWGQGTTVTVSS VL: DIQMTQSPSSLSASVGDRVTITCRASENIYRNLAWYQQKPGKAPKLLVYAATNLADGVPSRFSGSGSGTDYTLTISSLQPEDFATYYCQHFWGTPWTFGQGTKVEIK | 100 | 5.6 | 5.3 | 5.5
83 (antibody, V domains shown, constant regions without entry; synthetic humanized antibody light chain variable region sequence; synthetic humanized antibody heavy chain variable region sequence) VL: DIQMTQSPSSLSASVGDRVTITCRASENIYRNLAWYQQKPGKAPKLLLYAATNLADGVPSRFSGSGSGTDYTLTISSLQSEDFATYYCQHFWGTPWTFGQGTKVEIK VH: QIQLVQSGSELKKPGASVKVSCKASGYTFTDYSMHWVRQAPGQGLKWMGWINTETGEPTYAQGFTGRFVFSLDTSVSTAYLQISSLKAEDTAVYYCARIPLYYYGSRYWYFDVWGQGTTVTVSS | 100 | 5.8 | 5.5 | 5.6
84 (antibody, V domains shown, constant regions without entry; synthetic humanized antibody light chain variable region sequence; synthetic humanized antibody heavy chain variable region sequence) VL: DIQMTQSPSSLSASVGDRVTITCRASENIYRNLAWYQQKPGKAPKLLLYAATNLADGVPSRFSGSGSGTDYTLTISSLQSEDFATYYCQHFWGTPWTFGQGTKVEIK VH: QVQLVQSGSELKKPGASVKVSCKASGYTFTDYSMHWVRQAPGQGLEWMGWINTETGEPTYADDFKGRFVFSLDTSVSTAYLQISSLKAEDTAVYYCARIPLYYYGSRYWYFDVWGQGTTVTVSS | 100 | 5.0 | 4.8 | 4.9
85 (antibody, V domains shown, constant regions without entry; synthetic humanized antibody light chain variable region sequence; synthetic humanized antibody heavy chain variable region sequence) VL: DIQMTQSPSSLSASVGDRVTITCRASENIYRNLAWYQQKPGKAPKLLLYAATNLADGVPSRFSGSGSGTDYTLTISSLQSEDFATYYCQHFWGTPWTFGQGTKVEIK VH: QVQLVQSGSELKKPGASVKVSCKASGYTFTDYSMHWVRQAPGQGLKWMGWINTETGEPTYADDFKGRFVFSLDTSVSTAYLQISSLKAEDTAVYYCARIPLYYYGSRYWYFDVWGQGTTVTVSS | 100 | 5.0 | 4.8 | 5.1
87 (antibody, V domains shown, constant regions without entry; synthetic humanized antibody light chain variable region sequence; synthetic humanized antibody heavy chain variable region sequence) VL: DIQMTQSPSSLSASVGDRVTITCRASENIYRNLAWYQQKPGKAPQLLLYAATNLADGVPSRFSGSGSGTDYTLTISSLQPEDFATYYCQHFWGTPWTFGQGTKVEIK VH: QVQLVQSGSELKKPGASVKVSCKASGYTFTDYSMHWVRQAPGQGLEWMGWINTETGEPTYAQGFTGRFVFSLDTSVSTAYLQISSLKAEDTAVYYCARIPLYYYGSRYWYFDVWGQGTTVTVSS | 100 | 5.4 | 5.3 | 5.4
82 (antibody, V domains shown, constant regions without entry; synthetic humanized antibody light chain variable region sequence; synthetic humanized antibody heavy chain variable region sequence) VL: DIQMTQSPSSLSASVGDRVTITCRASENIYRNLAWYQQKPGKAPKLLLYAATNLADGVPSRFSGSGSGTDYTLTISSLQSEDFATYYCQHFWGTPWTFGQGTKVEIK VH: QVQLVQSGSELKKPGASVKVSCKASGYTFTDYSMHWVRQAPGQGLKWMGWINTETGEPTYAQGFTGRFVFSLDTSVSTAYLQISSLKAEDTAVYYCARIPLYYYGSRYWYFDVWGQGTTVTVSS | 100 | 6.5 | 5.4 | 5.6
81 (antibody, V domains shown, constant regions without entry; synthetic humanized antibody light chain variable region sequence; synthetic humanized antibody heavy chain variable region sequence) VL: DIQMTQSPSSLSASVGDRVTITCRASENIYRNLAWYQQKPGKAPKLLLYAATNLADGVPSRFSGSGSGTDYTLTISSLQSEDFATYYCQHFWGTPWTFGQGTKVEIK VH: QVQLVQSGSELKKPGASVKVSCKASGYTFTDYSMHWVRQAPGQGLEWMGWINTETGEPTYAQGFTGRFVFSLDTSVSTAYLQISSLKAEDTAVYYCARIPLYYYGSRYWYFDVWGQGTTVTVSS | 100 | 4.9 | 5.2 | 5.0
86 (antibody, V domains shown, constant regions without entry; synthetic humanized antibody light chain variable region sequence; synthetic humanized antibody heavy chain variable region sequence) VL: DIQMTQSPSSLSASVGDRVTITCRASENIYRNLAWYQQKPGKAPKLLLYAATNLADGVPSRFSGSGSGTDYTLTISSLQSEDFATYYCQHFWGTPWTFGQGTKVEIK VH: QIQLVQSGSELKKPGASVKVSCKASGYTFTDYSMHWVRQAPGQGLKWMGWINTETGEPTYADDFKGRFVFSLDTSVSTAYLQISSLKAEDTAVYYCARIPLYYYGSRYWYFDVWGQGTTVTVSS | 100 | 5.7 | 5.6 | 5.7

From US10428140B2, “Anti-EphA4 antibody” (EISAI R&D MANAGEMENT CO., LTD., priority 2015, dated 2019)
